Starred links: 1 amine or outer side, 2 acyl side, 3 side chain; linkers in the order of their positions; H or OH if unused. Non-standard residues stand in square brackets, D forms with d. Groups on a side chain read outwards from the residue. No end group written: not given here. *: point of attachment. C20 diacid = O=C(O)CCCCCCCCCCCCCCCCCCC(=O)*; γGlu = O=C(O)[C@H](CCC(=O)[*:2])N[*:1]; 4Pal = N[C@@H](Cc1ccncc1)C(=O)O; αMeL = CC(C)C[C@](C)(N)C(=O)O; AEEA = NCCOCCOCC(=O)O; Aib = CC(C)(N)C(=O)O
T1: human glucose-dependent insulinotropic polypeptide (GIP) receptor (human, UniProt P48546 22-466)
T1 construct: whole, on cells; Assayed as crude membranes of stably transfected CHO cells; also called hGIPR; human GIP receptor
T1 sequence (looked up): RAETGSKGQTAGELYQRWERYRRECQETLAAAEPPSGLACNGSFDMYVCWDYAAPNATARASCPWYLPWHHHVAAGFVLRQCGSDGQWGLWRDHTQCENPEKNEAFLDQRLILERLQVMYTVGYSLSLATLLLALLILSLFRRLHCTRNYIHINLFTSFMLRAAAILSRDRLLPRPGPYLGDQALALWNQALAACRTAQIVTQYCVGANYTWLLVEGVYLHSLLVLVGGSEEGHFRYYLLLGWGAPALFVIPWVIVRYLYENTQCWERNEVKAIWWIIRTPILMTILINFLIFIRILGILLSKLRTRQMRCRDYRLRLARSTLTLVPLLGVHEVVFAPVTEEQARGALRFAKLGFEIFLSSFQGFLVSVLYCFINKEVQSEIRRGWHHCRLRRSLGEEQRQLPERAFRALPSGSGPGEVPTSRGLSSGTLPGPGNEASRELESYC

B1: Example 59 (peptide)
peptide: Y[Aib]EGTFISDYSI[αMeL]LDKK([AEEA-AEEA-γGlu-C20 diacid])HQ[Aib]EFVE[4Pal]LLAAGPSSGAPPPS-NH2
modifications: N-terminus assumed
SMILES: CC[C@H](C)[C@H](NC(=O)[C@H](Cc1ccccc1)NC(=O)[C@@H](NC(=O)CNC(=O)[C@H](CCC(=O)O)NC(=O)C(C)(C)NC(=O)[C@@H](N)Cc1ccc(O)cc1)[C@@H](C)O)C(=O)N[C@@H](CO)C(=O)N[C@@H](CC(=O)O)C(=O)N[C@@H](Cc1ccc(O)cc1)C(=O)N[C@@H](CO)C(=O)N[C@H](C(=O)N[C@@](C)(CC(C)C)C(=O)N[C@@H](CC(C)C)C(=O)N[C@@H](CC(=O)O)C(=O)N[C@@H](CCCCN)C(=O)N[C@@H](CCCCNC(=O)COCCOCCNC(=O)COCCOCCNC(=O)CC[C@H](NC(=O)CCCCCCCCCCCCCCCCCCC(=O)O)C(=O)O)C(=O)N[C@@H](Cc1c[nH]cn1)C(=O)N[C@@H](CCC(N)=O)C(=O)NC(C)(C)C(=O)N[C@@H](CCC(=O)O)C(=O)N[C@@H](Cc1ccccc1)C(=O)N[C@H](C(=O)N[C@@H](CCC(=O)O)C(=O)N[C@@H](Cc1ccncc1)C(=O)N[C@@H](CC(C)C)C(=O)N[C@@H](CC(C)C)C(=O)N[C@@H](C)C(=O)N[C@@H](C)C(=O)NCC(=O)N1CCC[C@H]1C(=O)N[C@@H](CO)C(=O)N[C@@H](CO)C(=O)NCC(=O)N[C@@H](C)C(=O)N1CCC[C@H]1C(=O)N1CCC[C@H]1C(=O)N1CCC[C@H]1C(=O)N[C@@H](CO)C(N)=O)C(C)C)[C@@H](C)CC
B2: Example 85 (peptide)
peptide: Y[Aib]EGTFISDYSI[αMeL]LDEK([AEEA-AEEA-γGlu-C20 diacid])HQ[Aib]DFVE[4Pal]LLAAGPSSGAPPPS-NH2
modifications: N-terminus assumed
SMILES: CC[C@H](C)[C@H](NC(=O)[C@H](Cc1ccccc1)NC(=O)[C@@H](NC(=O)CNC(=O)[C@H](CCC(=O)O)NC(=O)C(C)(C)NC(=O)[C@@H](N)Cc1ccc(O)cc1)[C@@H](C)O)C(=O)N[C@@H](CO)C(=O)N[C@@H](CC(=O)O)C(=O)N[C@@H](Cc1ccc(O)cc1)C(=O)N[C@@H](CO)C(=O)N[C@H](C(=O)N[C@@](C)(CC(C)C)C(=O)N[C@@H](CC(C)C)C(=O)N[C@@H](CC(=O)O)C(=O)N[C@@H](CCC(=O)O)C(=O)N[C@@H](CCCCNC(=O)COCCOCCNC(=O)COCCOCCNC(=O)CC[C@H](NC(=O)CCCCCCCCCCCCCCCCCCC(=O)O)C(=O)O)C(=O)N[C@@H](Cc1c[nH]cn1)C(=O)N[C@@H](CCC(N)=O)C(=O)NC(C)(C)C(=O)N[C@@H](CC(=O)O)C(=O)N[C@@H](Cc1ccccc1)C(=O)N[C@H](C(=O)N[C@@H](CCC(=O)O)C(=O)N[C@@H](Cc1ccncc1)C(=O)N[C@@H](CC(C)C)C(=O)N[C@@H](CC(C)C)C(=O)N[C@@H](C)C(=O)N[C@@H](C)C(=O)NCC(=O)N1CCC[C@H]1C(=O)N[C@@H](CO)C(=O)N[C@@H](CO)C(=O)NCC(=O)N[C@@H](C)C(=O)N1CCC[C@H]1C(=O)N1CCC[C@H]1C(=O)N1CCC[C@H]1C(=O)N[C@@H](CO)C(N)=O)C(C)C)[C@@H](C)CC
B3: Example 78 (peptide)
peptide: Y[Aib]EGTFISDYSI[αMeL]LDKK([AEEA-AEEA-γGlu-C20 diacid])HQ[Aib]DFVE[4Pal]LLAAGPSSGAPPPS-NH2
modifications: N-terminus assumed
SMILES: CC[C@H](C)[C@H](NC(=O)[C@H](Cc1ccccc1)NC(=O)[C@@H](NC(=O)CNC(=O)[C@H](CCC(=O)O)NC(=O)C(C)(C)NC(=O)[C@@H](N)Cc1ccc(O)cc1)[C@@H](C)O)C(=O)N[C@@H](CO)C(=O)N[C@@H](CC(=O)O)C(=O)N[C@@H](Cc1ccc(O)cc1)C(=O)N[C@@H](CO)C(=O)N[C@H](C(=O)N[C@@](C)(CC(C)C)C(=O)N[C@@H](CC(C)C)C(=O)N[C@@H](CC(=O)O)C(=O)N[C@@H](CCCCN)C(=O)N[C@@H](CCCCNC(=O)COCCOCCNC(=O)COCCOCCNC(=O)CC[C@H](NC(=O)CCCCCCCCCCCCCCCCCCC(=O)O)C(=O)O)C(=O)N[C@@H](Cc1c[nH]cn1)C(=O)N[C@@H](CCC(N)=O)C(=O)NC(C)(C)C(=O)N[C@@H](CC(=O)O)C(=O)N[C@@H](Cc1ccccc1)C(=O)N[C@H](C(=O)N[C@@H](CCC(=O)O)C(=O)N[C@@H](Cc1ccncc1)C(=O)N[C@@H](CC(C)C)C(=O)N[C@@H](CC(C)C)C(=O)N[C@@H](C)C(=O)N[C@@H](C)C(=O)NCC(=O)N1CCC[C@H]1C(=O)N[C@@H](CO)C(=O)N[C@@H](CO)C(=O)NCC(=O)N[C@@H](C)C(=O)N1CCC[C@H]1C(=O)N1CCC[C@H]1C(=O)N1CCC[C@H]1C(=O)N[C@@H](CO)C(N)=O)C(C)C)[C@@H](C)CC
B4: Example 70 (peptide)
peptide: Y[Aib]EGTFISDYSI[αMeL]LDKK([AEEA-AEEA-γGlu-C20 diacid])HQ[Aib]DFVE[4Pal]LLATGPSSGAPPPS-NH2
modifications: N-terminus assumed
SMILES: CC[C@H](C)[C@H](NC(=O)[C@H](Cc1ccccc1)NC(=O)[C@@H](NC(=O)CNC(=O)[C@H](CCC(=O)O)NC(=O)C(C)(C)NC(=O)[C@@H](N)Cc1ccc(O)cc1)[C@@H](C)O)C(=O)N[C@@H](CO)C(=O)N[C@@H](CC(=O)O)C(=O)N[C@@H](Cc1ccc(O)cc1)C(=O)N[C@@H](CO)C(=O)N[C@H](C(=O)N[C@@](C)(CC(C)C)C(=O)N[C@@H](CC(C)C)C(=O)N[C@@H](CC(=O)O)C(=O)N[C@@H](CCCCN)C(=O)N[C@@H](CCCCNC(=O)COCCOCCNC(=O)COCCOCCNC(=O)CC[C@H](NC(=O)CCCCCCCCCCCCCCCCCCC(=O)O)C(=O)O)C(=O)N[C@@H](Cc1c[nH]cn1)C(=O)N[C@@H](CCC(N)=O)C(=O)NC(C)(C)C(=O)N[C@@H](CC(=O)O)C(=O)N[C@@H](Cc1ccccc1)C(=O)N[C@H](C(=O)N[C@@H](CCC(=O)O)C(=O)N[C@@H](Cc1ccncc1)C(=O)N[C@@H](CC(C)C)C(=O)N[C@@H](CC(C)C)C(=O)N[C@@H](C)C(=O)N[C@H](C(=O)NCC(=O)N1CCC[C@H]1C(=O)N[C@@H](CO)C(=O)N[C@@H](CO)C(=O)NCC(=O)N[C@@H](C)C(=O)N1CCC[C@H]1C(=O)N1CCC[C@H]1C(=O)N1CCC[C@H]1C(=O)N[C@@H](CO)C(N)=O)[C@@H](C)O)C(C)C)[C@@H](C)CC
B5: Example 79 (peptide)
peptide: Y[Aib]EGTFISDYSI[αMeL]LDKK([AEEA-AEEA-γGlu-C20 diacid])HQ[Aib]DFVE[4Pal]LLAQGPSSGAPPPS-NH2
modifications: N-terminus assumed
SMILES: CC[C@H](C)[C@H](NC(=O)[C@H](Cc1ccccc1)NC(=O)[C@@H](NC(=O)CNC(=O)[C@H](CCC(=O)O)NC(=O)C(C)(C)NC(=O)[C@@H](N)Cc1ccc(O)cc1)[C@@H](C)O)C(=O)N[C@@H](CO)C(=O)N[C@@H](CC(=O)O)C(=O)N[C@@H](Cc1ccc(O)cc1)C(=O)N[C@@H](CO)C(=O)N[C@H](C(=O)N[C@@](C)(CC(C)C)C(=O)N[C@@H](CC(C)C)C(=O)N[C@@H](CC(=O)O)C(=O)N[C@@H](CCCCN)C(=O)N[C@@H](CCCCNC(=O)COCCOCCNC(=O)COCCOCCNC(=O)CC[C@H](NC(=O)CCCCCCCCCCCCCCCCCCC(=O)O)C(=O)O)C(=O)N[C@@H](Cc1c[nH]cn1)C(=O)N[C@@H](CCC(N)=O)C(=O)NC(C)(C)C(=O)N[C@@H](CC(=O)O)C(=O)N[C@@H](Cc1ccccc1)C(=O)N[C@H](C(=O)N[C@@H](CCC(=O)O)C(=O)N[C@@H](Cc1ccncc1)C(=O)N[C@@H](CC(C)C)C(=O)N[C@@H](CC(C)C)C(=O)N[C@@H](C)C(=O)N[C@@H](CCC(N)=O)C(=O)NCC(=O)N1CCC[C@H]1C(=O)N[C@@H](CO)C(=O)N[C@@H](CO)C(=O)NCC(=O)N[C@@H](C)C(=O)N1CCC[C@H]1C(=O)N1CCC[C@H]1C(=O)N1CCC[C@H]1C(=O)N[C@@H](CO)C(N)=O)C(C)C)[C@@H](C)CC

molecular target: T2, human glucagon receptor (human, UniProt P47871 26-477); test: SPA, displacement of [125I]-Gcg from hGcgR membranes, 0.1% bacitracin
T2 construct: whole, on cells; Assayed as crude membranes of stably transfected HEK293 cells; also called hGcgR; GcgR
T2 sequence (P47871 26-477): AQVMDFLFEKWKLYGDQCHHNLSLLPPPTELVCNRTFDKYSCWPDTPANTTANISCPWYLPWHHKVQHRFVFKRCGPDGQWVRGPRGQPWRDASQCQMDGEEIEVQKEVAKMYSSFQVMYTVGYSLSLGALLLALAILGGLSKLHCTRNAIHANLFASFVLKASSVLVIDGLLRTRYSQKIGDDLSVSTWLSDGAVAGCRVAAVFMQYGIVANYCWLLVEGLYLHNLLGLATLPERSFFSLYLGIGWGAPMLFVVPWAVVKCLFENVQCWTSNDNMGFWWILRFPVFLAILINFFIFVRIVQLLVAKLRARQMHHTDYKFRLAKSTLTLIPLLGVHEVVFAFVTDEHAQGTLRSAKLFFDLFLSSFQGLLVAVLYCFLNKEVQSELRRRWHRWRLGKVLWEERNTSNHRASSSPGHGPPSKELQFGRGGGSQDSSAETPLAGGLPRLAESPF
How it was run: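 Binding buffer: 25 mM HEPES pH 7.4, 2.5 mM CaCl₂, 1 mM MgCl₂, 0.003% Tween-20, protease inhibitors without EDTA. Counted by scintillation after 12 h incubation/settling at room temperature. Four-parameter nonlinear fit; Kᵢ given as geometric mean ± SEM of independent replicates run on different days.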

| Binder | Ki [nM] |
| --- | --- |
| B1 | 230 |
| B2 | 800 |
| B3 | 505 |
| B4 | 857 |
| B5 | 888 |

molecular target: T3, human GLP-1 receptor (human, UniProt P43220 24-463); test: SPA, displacement of [125I]-GLP-1 from hGLP-1R membranes, 0.1% bacitracin
T3 construct: whole, on cells; Assayed as crude membranes of stably transfected HEK293 cells; also called hGLP1R; hGLP-1R
How it was run: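 Binding buffer: 25 mM HEPES pH 7.4, 2.5 mM CaCl₂, 1 mM MgCl₂, 0.1% bacitracin, 0.003% Tween-20, protease inhibitors without EDTA. Four-parameter nonlinear regression; Kᵢ given as geometric mean ± SEM, n = independent replicates run on different days.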

| Binder | Ki [nM] |
| --- | --- |
| B1 | 109 |
| B2 | 220 |
| B3 | 394 |
| B4 | 570 |
| B5 | 486 |

molecular target: T1, human glucose-dependent insulinotropic …; test: SPA, displacement of [125I]-GIP from hGIPR membranes, 0.1% bacitracin

| Binder | Ki [nM] |
| --- | --- |
| B1 | 0.0148 |
| B2 | 0.0529 |
| B3 | 0.0236 |
| B4 | 0.0421 |
| B5 | 0.0229 |
